Laboratory results: patent US20210347852A1 (Regeneron, published 2021)

B1: REGN7483, VEGF mini-trap hIgG1 Fc (other)
chain: SDTGRPFVEMYSEIPEIIHMTEGRELVIPCRVTSPNITVTLKKFPLDTLIPDGKRIIWDSRKGFIISNATYKEIGLLTCEATVNGHLYKTNYLTHRQTNTIIDVVLSPSHGIELSVGEKLVLNCTARTELNVGIDFNWEYPSSKHQHKKLVNRDLKTQSGSEMKKFLSTLTIDGVTRSDQGLYTCAASSGLMTKKNSTFVRVHEKDKTHTCPPCPAPELLG
notes: Enzymatically cleaved from aflibercept; also called REGN7483F; VEGF mini-trap derived from REGN3
B2: REGN10102, VEGF trap hIgG2 Fc w/2Cys (Fc fusion)
chain: SDTGRPFVEMYSEIPEIIHMTEGRELVIPCRVTSPNITVTLKKFPLDTLIPDGKRIIWDSRKGFIISNATYKEIGLLTCEATVNGHLYKTNYLTHRQTNTIIDVVLSPSHGIELSVGEKLVLNCTARTELNVGIDFNWEYPSSKHQHKKLVNRDLKTQSGSEMKKFLSTLTIDGVTRSDQGLYTCAASSGLMTKKNSTFVRVHEKVECPPCPAPPVAGPSVFLFPPKPKDTLMISRTPEVTCVVVDVSHEDPEVQFNWYVDGVEVHNAKTKPREEQFNSTFRVVSVLTVVHQDWLNGKEYKCKVSNKGLPAPIEKTISKTKGQPREPQVYTLPPSREEMTKNQVSLTCLVKGFYPSDIAVEWESNGQPENNYKTTPPMLDSDGSFFLYSKLTVDKSRWQQGNVFSCSVMHEALHNHYTQKSLSLSPGK
B3: Human VEGF121 (R&D SYSTEMS Cat #4644-VS) (ligand, UniProt P15692-9 27-147, looked up)
chain: APMAEGGGQNHHEVVKFMDVYQRSYCHPIETLVDIFQEYPDEIEYIFKPSCVPLMRCGGCCNDEGLECVPTEESNITMQIMRIKPHQGQHIGEMSFLQHNKCECRPKKDRARQEKCDKPRR

How the values were obtained:
[1] = target: B3; test: cell-based or functional assay
Human VEGF165 (REGN110) [2] = target: T1, Human VEGF165 (REGN110) (human, UniProt P15692-4 27-191); test: SPR (Biacore 3000), 25C, trap captured by REGN18, hVEGF165 injected
T1 construct: also called hVEGF165; REGN110-L9
Procedure: Equilibrium dissociation constants (KD values) for human VEGF₁₆₅ binding to various purified VEGF mini-trap constructs were determined using a real-time surface plasmon resonance biosensor using a Biacore 3000 instrument. All binding studies were performed in 10 mM HEPES, 150 mM NaCl, 3 mM EDTA, and 0.05% v/v Surfactant Tween-20; pH 7.4 (HBS-ET) running buffer at 25° C. The Biacore sensor surface was first derivatized by amine coupling with a monoclonal mouse anti-VEGFR1 antibody (REGN18) to capture VEGF mini-trap constructs. Binding studies were performed on the following human VEGF reagents: human VEGF₁₆₅. […] Dissociation of bound VEGF₁₆₅ reagent from VEGF mini-trap constructs was monitored for 60 minutes in HBS-ET running buffer. Kinetic association (ka) and dissociation (kd) rate constants were determined by fitting the real-time sensorgrams to a 1:1 binding model using Scrubber 2.0c curve fitting software. Binding dissociation equilibrium constants (KD) and dissociative half-lives (t1/2) were calculated from the kinetic rate constants as: […]

[3] = target: B3; test: cell-based or functional assay; remark: listed apart in the source
Human VEGF165 (REGN110) [4] = target: T1, Human VEGF165 (REGN110); test: cell-based or functional assay
[5] = target: B3; test: cell-based or functional assay; remark: listed apart in the source
[6] = target: T2, VEGFR1 chimeric receptors Flt1(1-7)-IL18Rα / Flt1(1-7)-IL18Rβ on HEK293/D9 reporter cells (UniProt P17948 27-758; Q13478 351-541; P17948 27-758; O95256 378-599, limits assumed); test: cell-based or functional assay
T2 sequence (P17948 other isoform, or with tags, fused parts or gaps mutant limits assumed, chain 1 of 2): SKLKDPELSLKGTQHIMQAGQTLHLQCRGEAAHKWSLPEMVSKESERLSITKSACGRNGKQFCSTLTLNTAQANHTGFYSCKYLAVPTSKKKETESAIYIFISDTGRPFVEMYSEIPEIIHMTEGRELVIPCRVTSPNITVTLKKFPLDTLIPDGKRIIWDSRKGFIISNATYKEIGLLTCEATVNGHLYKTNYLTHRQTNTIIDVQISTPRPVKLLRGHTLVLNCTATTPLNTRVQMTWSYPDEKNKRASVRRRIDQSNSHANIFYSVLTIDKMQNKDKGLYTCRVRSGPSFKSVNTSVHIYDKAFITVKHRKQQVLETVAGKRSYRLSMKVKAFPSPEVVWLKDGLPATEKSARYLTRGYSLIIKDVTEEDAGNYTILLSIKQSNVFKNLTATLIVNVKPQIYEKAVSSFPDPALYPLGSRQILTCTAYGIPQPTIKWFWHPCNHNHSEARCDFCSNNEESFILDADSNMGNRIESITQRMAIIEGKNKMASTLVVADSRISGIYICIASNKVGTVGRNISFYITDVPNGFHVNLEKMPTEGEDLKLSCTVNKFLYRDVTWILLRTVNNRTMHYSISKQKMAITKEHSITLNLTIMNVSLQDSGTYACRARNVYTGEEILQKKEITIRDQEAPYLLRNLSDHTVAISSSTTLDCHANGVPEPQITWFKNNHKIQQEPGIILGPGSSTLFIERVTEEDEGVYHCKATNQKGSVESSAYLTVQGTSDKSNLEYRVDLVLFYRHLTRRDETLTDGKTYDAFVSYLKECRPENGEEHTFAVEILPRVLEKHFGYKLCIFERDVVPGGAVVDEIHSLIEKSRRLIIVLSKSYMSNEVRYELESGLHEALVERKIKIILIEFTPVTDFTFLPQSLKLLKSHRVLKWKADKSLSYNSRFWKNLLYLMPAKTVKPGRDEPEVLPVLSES
T2 sequence (P17948 other isoform, or with tags, fused parts or gaps mutant limits assumed, chain 2 of 2): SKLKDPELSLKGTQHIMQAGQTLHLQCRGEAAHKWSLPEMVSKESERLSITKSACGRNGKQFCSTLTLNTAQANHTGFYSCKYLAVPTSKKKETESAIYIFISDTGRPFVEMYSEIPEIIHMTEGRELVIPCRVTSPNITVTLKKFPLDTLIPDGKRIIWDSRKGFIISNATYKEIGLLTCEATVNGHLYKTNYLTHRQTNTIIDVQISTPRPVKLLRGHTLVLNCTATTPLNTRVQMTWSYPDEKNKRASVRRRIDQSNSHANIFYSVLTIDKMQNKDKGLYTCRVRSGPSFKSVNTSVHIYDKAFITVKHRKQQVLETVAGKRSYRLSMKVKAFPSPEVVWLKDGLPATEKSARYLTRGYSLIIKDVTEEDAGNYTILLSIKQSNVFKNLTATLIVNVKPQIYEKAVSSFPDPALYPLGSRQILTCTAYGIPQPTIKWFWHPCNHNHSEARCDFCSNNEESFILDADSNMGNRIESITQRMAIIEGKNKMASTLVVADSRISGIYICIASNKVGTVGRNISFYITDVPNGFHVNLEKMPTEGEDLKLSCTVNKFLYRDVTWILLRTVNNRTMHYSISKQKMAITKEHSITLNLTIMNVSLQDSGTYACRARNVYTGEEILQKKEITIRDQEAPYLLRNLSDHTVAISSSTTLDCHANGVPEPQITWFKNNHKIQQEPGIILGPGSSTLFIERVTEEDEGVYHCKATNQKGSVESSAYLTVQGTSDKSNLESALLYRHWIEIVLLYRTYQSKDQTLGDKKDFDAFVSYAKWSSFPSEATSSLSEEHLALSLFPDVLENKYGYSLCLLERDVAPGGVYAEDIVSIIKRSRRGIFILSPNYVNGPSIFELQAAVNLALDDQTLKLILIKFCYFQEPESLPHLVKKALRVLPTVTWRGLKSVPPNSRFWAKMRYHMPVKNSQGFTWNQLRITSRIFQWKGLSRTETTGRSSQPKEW

[7] = target: T2, VEGFR1 chimeric receptors …; test: cell-based or functional assay; remark: listed apart in the source

| Binder | IC50 (read off the curve); NFkB-luciferase reporter (RLU), 293/D9/VEGFR1 cells, VEGF121 constant 40 pM [A] [1] | 2.5 nM hVEGF165 Bound (RU) (Human VEGF165 (REGN110) [2]) | Kd (Human VEGF165 (REGN110) [2]) | koff (Human VEGF165 (REGN110) [2]) | kon (Human VEGF165 (REGN110) [2]) | t½ (Human VEGF165 (REGN110) [2]) | IC50, Inhibition of 20 pM VEGF121, VEGFR1 assay (luciferase) [3] | IC50, Inhibition of 20 pM VEGF165, VEGFR1 assay (luciferase) (Human VEGF165 (REGN110) [4]) | IC50 (read off the curve); NFkB-luciferase reporter (RLU), 293/D9/VEGFR1 cells, VEGF121 constant 40 pM [C] [5] | EC50 (read off the curve); NFkB-luciferase reporter (RLU), 293/D9/VEGFR1 cells, VEGF121 titrated alone [A] [6] | EC50 of activation of HEK293/D9/Flt-IL18Rα/Flt-IL18Rβ (VEGFR1) luciferase reporter cells [7] |
| --- | --- | --- | --- | --- | --- | --- | --- | --- | --- | --- | --- |
| B1 | ~2e-11 M | 9.37 RU | 0.0019 nM | 1.95e-05 s⁻¹ | 1.01e+07 M⁻¹ s⁻¹ | 9.85 h | 2.09e-11 M | 3.36e-11 M | – | – | – |
| B2 | – | 6.6 RU | 0.0026 nM | 2.77e-05 s⁻¹ | 1.06e+07 M⁻¹ s⁻¹ | 6.95 h | 1.43e-11 M | – | ~1e-11 M | – | – |
| B3 | – | – | – | – | – | – | – | – | – | ~0.1 nM | ~0.03 nM |
